The values below are quoted from earlier work in paper PMC5803488.

Like-named read-outs stand apart in the source and are kept apart here.

Series [1] has as its target ubiquitin (UniProt P0CG48).
Series [2] deals with ubiquitin (UniProt P0CG48). This is another data set of the same source.

Sequence of Tsg101 UEV (Q99816 1-148): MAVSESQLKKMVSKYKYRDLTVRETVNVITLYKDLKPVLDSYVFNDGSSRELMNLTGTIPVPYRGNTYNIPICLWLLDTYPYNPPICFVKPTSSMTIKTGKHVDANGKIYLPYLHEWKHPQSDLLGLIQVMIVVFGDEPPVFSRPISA
Sequence of Vps36 (Eap45) GLUE (Q86VN1 1-138): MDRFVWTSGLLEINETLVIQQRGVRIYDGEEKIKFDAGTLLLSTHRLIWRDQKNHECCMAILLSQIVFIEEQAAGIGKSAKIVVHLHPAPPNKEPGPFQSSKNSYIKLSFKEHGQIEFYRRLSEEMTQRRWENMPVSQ

Tsg101 UEV (from UniProt Q99816): the Kd – broadly, the equilibrium constant for the complex coming apart – in series [1] was 510 µM.

Consider “Vps36 (Eap45) GLUE (from UniProt Q86VN1)”, for which the equilibrium dissociation constant (Kd) in series [2] was 330 µM.
